The target in the assay is δ-PKC in isolated rat hearts (rat), P09215. Kind of assay: cell-based or functional assay.

This is an account of results in US20090081786A1, “Peptide sequences for modulation of protein kinase C” (priority 2006, published 2009).

Chain of δ-PKC in isolated rat hearts (rat), P09215 (P09215 whole entry, stated change not applied): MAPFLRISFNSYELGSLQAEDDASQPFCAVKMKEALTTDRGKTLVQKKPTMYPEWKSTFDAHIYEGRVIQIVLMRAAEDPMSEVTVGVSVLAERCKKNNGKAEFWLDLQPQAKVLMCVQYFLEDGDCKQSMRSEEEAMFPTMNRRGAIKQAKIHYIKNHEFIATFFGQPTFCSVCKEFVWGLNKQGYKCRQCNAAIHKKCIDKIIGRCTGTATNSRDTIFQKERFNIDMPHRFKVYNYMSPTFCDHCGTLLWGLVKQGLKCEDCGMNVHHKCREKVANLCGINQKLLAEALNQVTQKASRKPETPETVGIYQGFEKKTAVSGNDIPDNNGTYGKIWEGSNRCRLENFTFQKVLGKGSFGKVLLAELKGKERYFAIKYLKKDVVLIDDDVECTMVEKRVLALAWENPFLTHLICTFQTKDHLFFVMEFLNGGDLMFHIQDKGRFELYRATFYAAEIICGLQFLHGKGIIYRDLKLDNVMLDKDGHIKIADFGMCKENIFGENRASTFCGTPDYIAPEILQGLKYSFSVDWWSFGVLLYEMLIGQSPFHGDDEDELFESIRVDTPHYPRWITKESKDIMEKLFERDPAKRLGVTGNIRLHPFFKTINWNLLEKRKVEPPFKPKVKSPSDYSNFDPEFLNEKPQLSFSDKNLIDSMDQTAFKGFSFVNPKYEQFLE

B1: annexin V-derived peptide pAnxV (annexin V residues 157-164) conjugated to TAT47-57 carrier peptide (peptide)
peptide: LQANRDPD
chain: YGKKRRQRRR
modifications: not checked
Take B1: the creatine phosphokinase (CPK) release in the heart perfusate during reperfusion was more than 50 % reduction and the infarct size after ischemia/reperfusion in isolated rat hearts was determined as 70 % reduction.
